Results published in PMC10420310, “The Complex Proteolipidic Behavior of the SARS-CoV-2 Envelope Protein Channel: Weak Selectivity and Heterogeneous Oligomerization” (International Journal of Molecular Sciences, 2023).
Several values for one entry are separate records, joined by “and”; a condition that tells them apart may be missing. Equal values may be shown once.

Legend:
[1] = biological target: full-length SARS-2 E protein (E-FL) (SARS-CoV-2) (UniProt P0DTC4); assay: AUC; sedimentation velocity, E-FL at DPR 125 in 5 mM C14SB micelles, 50 mM Tris-HCl pH 7.3, 100 mM NaCl, 29.4% D2O, 20 °C, 50,000 rpm
[2] = biological target: truncated SARS-2 E protein corresponding to residues 8–65 with N-terminal 6-His tag (6H-E-TR) (SARS-CoV-2) (UniProt P0DTC4); assay: AUC; sedimentation velocity, His-E-TR at DPR 70 in 5 mM C14SB micelles, 50 mM Tris-HCl pH 7.3, 100 mM NaCl, 29.4% D2O, 20 °C, 50,000 rpm
[3] = biological target: truncated SARS-2 E protein corresponding to residues 8–65 with N-terminal 6-His tag (6H-E-TR) (SARS-CoV-2) (UniProt P0DTC4); assay: AUC; sedimentation velocity, His-E-TR at DPR 25 in 5 mM C14SB micelles, 50 mM Tris-HCl pH 7.3, 100 mM NaCl, 29.4% D2O, 20 °C, 50,000 rpm

full-length SARS-2 E protein (E-FL) (from UniProt P0DTC4 1-75) (natural protein)
stoichiometry N [1]: 2 and 4.6

truncated SARS-2 E protein corresponding to residues 8–65 with N-terminal 6-His tag (6H-E-TR) (from UniProt P0DTC4 8-65) (domain or fragment)
stoichiometry N [2]: 2.56 | stoichiometry N [3]: 3
